# Measured values as given in publication PMC6404062.
# B1: Clone 5 heptapeptide ASHTQKS, displayed on M13 phage (peptide)
# peptide: ASHTQKS
# B2: Clone 34 heptapeptide QPQMSHM, displayed on M13 phage (peptide)
# peptide: QPQMSHM
# B3: Clone 36 heptapeptide TNIESLK, displayed on M13 phage (peptide)
# peptide: TNIESLK
# B4: Clone 40 heptapeptide NCHKCWN, displayed on M13 phage (peptide)
# peptide: NCHKCWN
# B5: Clone 44 heptapeptide SHLSKNF, displayed on M13 phage (peptide)
# peptide: SHLSKNF
# B6: Clone 3 heptapeptide NVQYFAV, displayed on M13 phage (peptide)
# peptide: NVQYFAV
# B7: Clone 1 heptapeptide CPSTHWK, displayed on M13 phage (peptide)
# peptide: CPSTHWK
# Target: Human IgG4 monoclonal antibody (human)
# Assay: ELISA; data not shown: the same plates in DMEM with 5% FCS and 5 g/L ovalbumin, hIgG4-coated wells compared with control wells coated with 200 µL of 100 µg/mL lactoferrin in TBS
row,Binder,fold absorbance over lactoferrin-coated control wells
1,B1,> 3 fold
2,B2,> 3 fold
3,B3,> 3 fold
4,B4,> 3 fold
5,B5,> 3 fold
6,B6,> 3 fold
7,B7,> 3 fold

# Target: Human IgG4 monoclonal antibody (human)
# Assay: ELISA; hIgG4 coated on wells as in the screening; 2.5 × 10^11 phage particles in 100 µL per well in DMEM with 5% FCS and 5 g/L ovalbumin, in triplicate; original phage library assayed beside the clones
Binder,fold absorbance over the original phage library,ELISA signal,fold ELISA signal over the original phage library
B1,> 2.5 fold,–,–
B2,> 2.5 fold,–,–
B3,> 2.5 fold,–,–
B4,> 2.5 fold,> 0.85 AU,> 4 fold
B5,> 2.5 fold,–,–
B6,> 2.5 fold,> 0.85 AU,> 4 fold
B7,> 2.5 fold,–,–
